According to paper doi:10.1101/2021.09.21.461216 (bioRxiv, 2021):

Target: GST tagged constitutively activated K-Ras4B (GST-K-RasV12) (UniProt P01116-2 1-188, V12)
Assay: pull-down

B1: BRI3BP domain identified in the two-hybrid assay, overexpressed in mammalian cells (domain or fragment, UniProt Q8BXV2 85-253, looked up)
chain: RFVQGVDMFLETLWKVWMELLEVLGLDVSNLSQYFSPASVSNSPTRALVLVGVVLLAYWFLSLTLGFTFSLLHLVFGRFFWLVRVILFSMSCVYILHKYEGEPEHAVLPLCVVVAIYFMTGPMGYWRGSPGGLCSPSVEEKLEHLENQVRLLNIRLNRVLENLDRSKDK
fold selectivity for K-Ras over H-Ras: ~7 fold
